Assay results published in patent US20240052045A1 (VIB VZW, published 2024).

What was measured:
human CCR8 [1] = target: T1, human CCR8 (human, UniProt P51685 1-355); assay: flow cytometry competition with parental VHH-67
T1 construct: Expressed on HEK293, HEK293T or CHO-K1 cells, stably or transiently transfected; also called hCCR8
Excerpt: (§1) Multiple His6 tagged VHH variants were thus generated and evaluated by flow cytometry for their ability to compete for binding to hCCR8 with their FLAG3-His6 tagged parental counterpart (VHH-57, VHH-64 or VHH-67).

murine CCR8 [2] = target: T2, murine CCR8 (mouse, UniProt P56484 1-353); assay: flow cytometry on HEK293T cells transiently transfected with mouse CCR8
T2 construct: Transiently expressed on HEK293/HEK293T cells or endogenously expressed on BW5147 cells; also called mouse CCR8; mCCR8
T2 sequence: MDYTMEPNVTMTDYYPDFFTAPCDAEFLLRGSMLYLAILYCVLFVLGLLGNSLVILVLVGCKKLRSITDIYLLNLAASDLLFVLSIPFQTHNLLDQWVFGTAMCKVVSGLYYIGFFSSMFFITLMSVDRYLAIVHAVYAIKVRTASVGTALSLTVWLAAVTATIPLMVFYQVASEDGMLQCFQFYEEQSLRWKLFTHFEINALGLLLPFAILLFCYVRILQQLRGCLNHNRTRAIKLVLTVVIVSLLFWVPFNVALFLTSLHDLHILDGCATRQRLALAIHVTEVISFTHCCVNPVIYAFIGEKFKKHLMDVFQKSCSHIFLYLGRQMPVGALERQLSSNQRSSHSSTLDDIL

human CCR8 [3] = target: T1, human CCR8; assay: flow cytometry on HEK293 cells with hCCR8 and chimeric/deleted variants
human CCR8 [4] = target: T1, human CCR8; assay: flow cytometry competition with parental VHH-57
Excerpt: as §1

murine CCR8 [5] = target: T2, murine CCR8; assay: flow cytometry on cells transfected with mouse CCR8
human CCR8 [6] = target: T1, human CCR8; assay: competitive binding, flow cytometry
human CCR8 [7] = target: T1, human CCR8; assay: flow cytometry competition with parental VHH-64
Excerpt: as §1

T1 sequence (P51685 whole entry): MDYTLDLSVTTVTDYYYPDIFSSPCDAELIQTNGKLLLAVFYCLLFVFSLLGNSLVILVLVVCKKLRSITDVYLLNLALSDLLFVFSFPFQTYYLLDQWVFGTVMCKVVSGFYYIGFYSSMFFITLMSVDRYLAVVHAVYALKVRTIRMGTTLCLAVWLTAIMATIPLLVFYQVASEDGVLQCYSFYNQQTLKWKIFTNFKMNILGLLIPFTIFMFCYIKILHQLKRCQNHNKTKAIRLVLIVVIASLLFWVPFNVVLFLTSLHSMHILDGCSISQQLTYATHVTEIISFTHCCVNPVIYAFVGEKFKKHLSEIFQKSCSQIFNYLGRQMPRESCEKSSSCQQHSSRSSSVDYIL

B1: VHH-120 (VHH)
VHH: DVQLVESGGGLVQPGGSLRLSCTVSGSIFSLRTVGWYRQAPGKQRELVATISAGGATDYADSVKGRFTISRDNAKNTVYLQMNSLRPEDTAVYYCYAQDSYKIYKSRYTQDYWGQGTLVTVSS
notes: also called VHH-67 with mutations E1D, V65G, V69I, G74A; not shown: C-terminal His6 tag (no FLAG3)
B1: binds (human CCR8 [1]).

B2: VHH-67 (VHH)
VHH: EVQLVESGGGLVQPGGSLRLSCTVSGSIFSLRTVGWYRQAPGKQRELVATISAGGATDYADSVKVRFTVSRDNGKNTVYLQMNSLRPEDTAVYYCYAQDSYKIYKSRYTQDYWGQGTLVTVSS
notes: Monovalent VHH purified from E. coli periplasm with C-terminal FLAG3 and His6 tags; not shown: C-terminal FLAG3 and His6 tags
B2: binds (murine CCR8 [2]); binds (human CCR8 [3]).

B3: VHH-121 (VHH)
VHH: DVQLVESGGGLVQPGGSLRLSCTVSGSIFSLRTVGWYRQAPGKQRELVATISAGGATDYADSVKGRFTISRDNAKNTVYLQMNSLRPEDTAVYYCYAQQSYKIYKSRYTQDYWGQGTLVTVSS
notes: also called VHH-67 with E1D, V65G, V69I, G74A, D99Q; not shown: C-terminal His6 tag (no FLAG3)
B3: binds (human CCR8 [1]).

B4: VHH-122 (VHH)
VHH: DVQLVESGGGLVQPGGSLRLSCTVSGSIFSLRTVGWYRQAPGKQRELVATISAGGATDYADSVKGRFTISRDNAKNTVYLQMNSLRPEDTAVYYCYAQDTYKIYKSRYTQDYWGQGTLVTVSS
notes: also called VHH-67 with E1D, V65G, V69I, G74A, S100T; not shown: C-terminal His6 tag (no FLAG3)
B4: binds (human CCR8 [1]).

B5: VHH-57 (VHH)
VHH: EVQLVESGGGLVQPGGSLRLSCTASGNIFSLLDMKWYRQAPGKQRELVADITSGGSTNYADPVKGRFTISRDNAKNTVYLQMNSLRPEDTAVYYCNAAPYYWGAYRRQESWGQGTLVTVSS
notes: as for B2
B5: binds (murine CCR8 [2]); binds (human CCR8 [3]).

B6: VHH-119 (VHH)
VHH: DVQLVESGGGLVQPGGSLRLSCTASGSIFSLLDMKWYRQAPGKQRELVADITSGGSTNYADSVKGRFTISRDNAKNTVYLQMNSLRPEDTAVYYCNAAPYYWGAYRRQESWGQGTLVTVSS
notes: also called VHH-57 with mutations E1D, N27S, P62S; not shown: C-terminal His6 tag (no FLAG3)
B6: binds (human CCR8 [4]).

B7: VHH-64 (VHH)
VHH: EVQLVESGGGLVQPGGSLRLSCAVSGGIRSIIPAGWYRQVPGKQRELVAAISTAGSADYADSVKGRFTISRDNTKNTAYLQMNSLRPEDTAVYYCNGRQTGWRTRVDYWGQGTLVTVSS
notes: as for B2
B7: binds (murine CCR8 [5]); binds (human CCR8 [6]).

B8: VHH-84 (VHH)
VHH: DVQLVESGGGLVQPGGSLRLSCAVSGGIRSIIPAGWYRQAPGKQRELVAAISTAGSADYADSVKGRFTISRDNAKNTVYLQMNSLRPEDTAVYYCNGRQTGWRTRVDYWGQGTLVTVSS
notes: also called VHH-64 with mutations E1D, V40A, T74A, A78V; not shown: C-terminal His6 tag (no FLAG3)
B8: binds (human CCR8 [7]).
